This note sets out measurements from the NTF2 design screens of Basanta et al. (2020).

A short description of this data set: protease stability score; higher = more stable; yeast display proteolysis, trypsin and chymotrypsin.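 Also: log10 excess protease needed over predicted unfolded state with 0 meaning unfolded.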
In the case of “DEEERAKNFMKQLIDVAQRGDKENAKRLFDENARVEVGDKTYRGRRRVATFLMELSERADHMEMRIQSFDISGDKFDLVLKVERHHNGRQQSFQLKVVATVRNGNLVIVHVRMG”, the protease stability score is 2.49. Take “DEEERLRTILKLFEEALKHNDEDRLRKLADKDVRMRVGDKEYRGKEKFADFMRKLRTKADKVRIQIKQVNIQGNHNTMDITLVFNVNGNNNRFKVNFVFDIRGDSLKLKSATVK”: the protease stability score amounted to 1.32. Next, “DEEERRKAHELVKHNDWDKLMKNAPPDVTARIGDRTVHGMEEQVRIEHNMLRRVDENQLHSVDNSGNQLVVTLHVQINGRRFKFTVKIVIHNGQVTTVKVQARDEKEKRKLTELMG”: 0.566; “DEEERRRLAKRVIDAMNTGDPDQVVEQIDPNARVEIGDKVYHGRDKAKKAAEERKRQADHVKLKSLEVHGNKVHARLIFNRNGENRTVLLRIKVSNGKALEIRFDHQ”: 0.552. Sequence “DEEERSKLAERLVKAVQNNDEDSLLDNIDKNARVVVGEKTYHGRENARHAMQQFDEDVDHLQVRTFEVHGEHIRIQFEVNINGHTHTVVLDAEVKNGKLTDVKFDPDDMRKATS” had a protease stability score of 0.14. “DEEESDRLKELFRVMRTGDHKRAENMLDPNARFKVGDKKFEGRHEWQKDIKKTKEESHADIKIKDVHFDNGRVDVTLEMVVLHNGRPKKFRVKFVATIQGEKVKEAHITESQ”: the protease stability score was -0.094.

“DEEEVEEMVDQALTAIRTGDEDTFAHQFDENARMEVGDTTLHGRDEIRKEMKKFRDRADHIRIQDYKVKGNKIVIVFVARFDGRHAQITIVWVFSNGRVKHASINPNQVQEFRK” registered a protease stability score of 0.279. “DEEEVERIAKKLWKIMETGDEDEARKMVPPDVQARVGDKHISGREQYAKWVREVVKRVDSFRIKSLDAKGDKVNIVFVVHHNGKVEQHHATLVFHNGKLVYRTVKTG”: the protease stability score worked out at 0.433. Then “DEEEVERVAKTAMEAMKKGNEEELKKLLKEGVEYIMGDNKVHGPEEIQKMVQLVLRVGMRIEFKELRVEGDTATTNVDYQVGDKKVTVQAHAELKGGRIDRVQIDFSDEAKKHVKHG”, with 1.17; and “DEEEVKDLDRRLQEAMKTNDPDQMQRLVDENVTASYGDKEVTGREEFKKNNRELLKRVDHVNIHDVTVSGEEMVLDASVKHDGREHRIRVRAVVRDGRIKSLKIHDG”, with 0.494; and “DEEEVKKFKEFLDDEKKGNEERAKKLADPNVNVRVGNRQVDGSDNLQKEIRTQKEQARFDMKVDHVEAHNGRIHLEFKLTVEVDGRPKSDTATADAVVTNGHITSLTVQMSEDQVREMDK”, with -0.238.

Regarding “DEEEVKKQLEKLVKMLVKGNKDEIKKFLDPDVEYKVVDEDFQGQQVAEHAYKKIKKVGARMEVKEVRVEGDTAKATYEFTAGGTTVRAEIEAEVHGGRVKHWQVDLDDTAKELIKKG”, the protease stability score turned out to be 0.266. Next, “DEEEVKQAIDRWEQGDPDQLKELVDENAHMVIGDKRLHGRETFEKMIKNLMDQADHITIESVEVQGDKAVMDVVANFNGKTVRYEVEIRIQNGQIKYLQINVTNEHDEHRFDQWLG”: 1.16; “DEEEVKRQLDQVAKALLHGDEKQAKDLADPNVSANYGDKKLHGRENFSKWVKKFRHQIDHLELKDIRVNGDRLVIEVQANVNGQDVDVVFNLKLHNGKVKHMSVEYRDEQAKRELKK”: 0.49; “DEEEVNKALERIRQVLEDGNPDENMKLMDKDVRVEIGDKTWHGRDEAHKAMRELNENVDHFQFDRLHHEGDRAKIDVHLEDNGKKDRVTFEFKIENGRIQHARVQTS”: -0.335. Take “DEEEVQKILKTMNELLKHNDFDSLARQADPNAEFHVGDKRVHGREQVQTMLQDLRERIDHVEIRSMTAQGDKFKLDFLENVNGRRTRVTAHADVHNGRIKSVEYRTS”: the protease stability score is -0.619. Sequence “DEEEVRELAERFAENLERGDFHKVANQADPNARMQIGDTRYHGREELQRFLKELMERVDHLQIRSVKVRGNHVTIRMHVHYNGKSVDMHMTFHAKNGKIKHVEFNPKDFDKARR” registered a protease stability score of 0.813.

The sequence “DEEEVRKVLERLQKAVEKGNADEIAKLLKDDGEFVLIDERYKGQEDAKQVIKELQDKGFEFHTEEIQVKGGTAEVKTVWRVGDRELHLKVRYVVRGDKVDQVHAQWSKDAKEDLKKG” came in with a protease stability score of 0.691.

In the case of “DEEEVRRIAHEFLKAVERGDEKRVRQLADKDVRAVVGDKRIHGKKDLAKLVKTLRDRADQFKVRDLEVQGNHVEVDLVMIVNGQSVDMSINIVVHNGTIHHMEIRVTDEDRMREVNS”, the protease stability score is -0.053. Then “DEEEVSRILKKVLTAVRKNDPDTLMRLADKNARFHYGDRTYRGREQARRWMEDVRTHADHARINSFTVTGNKARADIRFDINGEERRVDMVIVVHNGKIHDLVVEDR”, with 1.3; and “DEEEVTKVVKKLRENDRDSQRDLFDKDVRVKIGDKNVHGREQAVTFWDRFLNSVDRYHVDSVEIDGDQIKIDARAVVNGRKVRYVVVYTVRNGRIKEASVHFTNEDEEKEFEKNVG”, with 1.28; and “DEEEWKELNKEISRIDQHGDERDLARLVDENAKIQIGDKTIRGREDLEKQFDRLRDRFDHIQVQHVENQGDKIRVEVVQRHNGRDETHVKTVKLENGRIKHMEMQHK”, with -0.186. In the case of “DEEFAKTVVQMFRNWVHGDPSDMTRMLDENAHVVIGDTTLRGRDDVSRYVNELHDHMRFHVDRLSEENRPGRAVVKAQNNNVHNGEPTTNRAVVEVNVKNGKAQDIQYNSDK”, the protease stability score was -0.36. “DEEFEQNAKEWLTAIKENDPDQVRDLVDEDVRFNVGNKKVHGRERWKHLVETENKELRVEYESIDVKVNGDKAEFNATVTVEVNGKPAHFHVNMKMQAHNGRIKHVSQNMSHEDQEKFRK” yielded a protease stability score of -0.118. Then “DEEFLKRLVKILRTGDPDKLVNNFDKNARLEYGDKTVEGKNRIKKFMKDLHDRVDHFDIESVTLEPNHLDFTMKAQINGRDVKVRVRVEVHNGKIKHATYKYTNEDQERNMKHVKS”, with 0.561; and “DEEFLRLIEEFWRAVKQNDEERLKHLLDENAKVKVGDKRLRGHEQVAKSIVDDQREMRIEMRIHKVEVDGNKVDVTYVVVFNVNGRPVSDSVRVIFRAKNGRIQMIEVRVDPDSAREQKS”, with 1.37.

As for “DEEFNKEVKKMFDNLEKGNEEEYLRMLDENAKAQYGDHDVRGREELKKELHRQRKEIRVKYQSVDIRMHNGELSVRFRAEVVVNGRPHTVERTQSAKVQNGRVQSMKLKIDEEQKERLEG”, the protease stability score is -0.251. “DEEFNKVLEEALHAMHKGDPDKLNKNLDEDAKIKYGDKTVHGREDATKLLETIVKNARIQIDSFRVTSRGEKAVADVRLRYRINGKPIDVKMIIYAKNDNGRIKEVEYKIDPDELRKVEG” had a protease stability score of 1.28. Regarding “DEEFQTEAEKMFTNQRNNNEDHLKDQFDKDAKVQVGDKEFHGTERYEETFRTQMEHMRYDIDSFTARVHGEDLDVDVSFQFESNGKPDRNRAKIIATYHNGRIKHLRVDQDQ”, the protease stability score amounted to 0.073. For “DEEFRHKVAKALQSNNEHQLHELMDKDAKMTIGDKTVHGREEIHRVLRRLREQADHWHVSRFKIHNGKIVADVQVHINGQTYHMTITAFARGDRIERLEYTVRDEDLLRKIQRWLG”, the protease stability score amounted to 1.97. “DEEFRHQVKQFLRAETRGNEETLKEQMDKDATFEVGDRVINGHEKYASDQHERRKEIRVEIKSMEVDAQGNTADYEIDFVEHFDGKPHRRKVRASIRVHNGRVKEIVEKDSQ”: the protease stability score is -0.184. Consider “DEEFVRTVVKAHEENDEKKFNDLMDKDVKVDIGNKELRGRDQARKQLHHLRDKIDHYHVKSVTFKGNRIQIKAEFQVDGRRISAIYQQDVHNGHITSFRVSVTDPRDKHKLDEIVG”, for which the protease stability score is 0.151. Then “DEEHAEELMKRWMEVVKKGDKDTVKELYKPNGTWRNVDEEHQGVEQVQKMMKKIQDVGVEFQVRKAKVEGDRVTVVYDVRAGDVEVTFTVQMDVDGGRVELVQVKVDEDAKKAVKTG”, with 0.034; and “DEEHAESVKTLFKNLRTNNEDEVEKLVDPNARMKYGDKQVHGRDEIKHMIQRLKDELHIEMDVKRMNVHNGQADLKFDITVVRNGKPDTAKANVRVQFSNGRIHDFTVQLNK”, with 0.347.
